According to paper PMC5473940, “SAF-A Regulates Interphase Chromosome Structure through Oligomerization with Chromatin-Associated RNAs” (Cell, 2017):

Biological target: the molecule itself
Test: native gel or EMSA; FLAG-SAF-A cross-linked in cells with 1 mM DTME, immuno-purified, cross-links reversed with 10 mM DTT, incubated 30 min at 37°C with 1 mM ATP or ATPγS, RNase A/T1 or apyrase (the last two promoted monomerization); native PAGE and western blot

B1: full-length FLAG-tagged SAF-A (293T) (natural protein)
chain: not shown
notes: SAF-A (HNRNP-U), human cDNA from Genome Cube; Modified pcDNA5/FRT vector; also called FLAG-SAF-A; 3xFLAG-SAF-A; source: 293T, expressed, cross-linked in cells, immuno-purified (anti-FLAG M2 agarose, 3xFLAG peptide elution); not shown: 3xFLAG, N-terminal, kept
Does B1 bind?
Result: binds
